Results reported in article PMC6156451 (Frontiers in Molecular Neuroscience, 2018).
Values belong to the substance of their own block, whether it stands above or below them. No end group written: not given here.

Key:
[1] = molecular target: ROS-GC1 peptide 1 peptide 1 (Bos taurus) (UniProt P55203); experiment: fluorescence
GCAP-2 [2] = molecular target: T1, GCAP-2 (Bos taurus, UniProt P51177); experiment: Surface plasmon resonance (SPR), GCAP-2/ROS-GC peptide interaction; assay type: binding, bovine
T1 construct: made in house; host or cells: E. coli BL21 (DE3), vector pET-11a, co-expressed with yeast N-myristoyltransferase I (pBB131)
T1 sequence (P51177 1-204): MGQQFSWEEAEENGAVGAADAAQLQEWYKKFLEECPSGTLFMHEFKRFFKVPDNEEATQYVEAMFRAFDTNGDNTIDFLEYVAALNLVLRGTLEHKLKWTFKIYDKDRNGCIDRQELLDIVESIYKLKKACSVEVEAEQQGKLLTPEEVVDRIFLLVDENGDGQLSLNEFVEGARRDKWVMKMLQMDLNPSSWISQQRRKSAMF

GCAP-2 [3] = molecular target: T1, GCAP-2; experiment: Fluorescence spectroscopy titration of ROS-GC peptides to GCAP-2; design: species or system bovine; conditions: excitation 280 nm, emission 350 nm, 20 mM HEPES pH 7.5, 20°C, calcium ~2 μM, read-out: KD1 (first binding event)
Procedure: Fluorescence measurements were carried out with a Jasco Spectrofluorometer FP-8200, equipped with a Jasco MCB-100 Mini Circulation Bath (20°C, xenon lamp, data interval 0.5 nm, accumulation number 3). The excitation wavelength was 280 nm, fluorescence emission was recorded at 350 nm to exclude self-fluorescence of non-bound peptide. […] As a negative control, separate recordings were performed with N-acetyl-L-tryptophanamide or N-acetyl-L-tyrosinamide, respectively.
A wavelength of 350 nm was chosen to rule out that changes in fluorescence originate from an increased concentration of non-bound peptide.

[4] = molecular target: myristoylated guanylyl cyclase-activating protein 2 (GCAP-2), bovine (bovine) (UniProt P51177); experiment: other fluorescence titration; GCAP-2 mixed with increasing concentrations of peptide in 20 mM HEPES pH 7.5, 20°C; excitation 280 nm, emission 350 nm; calcium not controlled, ~2 uM
[5] = molecular target: myristoylated guanylyl cyclase-activating protein 2 (GCAP-2), bovine (bovine) (UniProt P51177); experiment: SPR; GCAP-2 immobilised by amine coupling on 2D CMD sensor slides; peptides injected at 0.5-40 uM (peptide 3: 5-40 uM); 20 mM HEPES, 0.05% Tween, pH 7.5, 22°C, 30 ul/min; two-state model with equimolar binding; calcium not controlled, ~2 uM

Chain of ROS-GC1 peptide 1 peptide 1 (Bos taurus) (P55203 57-1110): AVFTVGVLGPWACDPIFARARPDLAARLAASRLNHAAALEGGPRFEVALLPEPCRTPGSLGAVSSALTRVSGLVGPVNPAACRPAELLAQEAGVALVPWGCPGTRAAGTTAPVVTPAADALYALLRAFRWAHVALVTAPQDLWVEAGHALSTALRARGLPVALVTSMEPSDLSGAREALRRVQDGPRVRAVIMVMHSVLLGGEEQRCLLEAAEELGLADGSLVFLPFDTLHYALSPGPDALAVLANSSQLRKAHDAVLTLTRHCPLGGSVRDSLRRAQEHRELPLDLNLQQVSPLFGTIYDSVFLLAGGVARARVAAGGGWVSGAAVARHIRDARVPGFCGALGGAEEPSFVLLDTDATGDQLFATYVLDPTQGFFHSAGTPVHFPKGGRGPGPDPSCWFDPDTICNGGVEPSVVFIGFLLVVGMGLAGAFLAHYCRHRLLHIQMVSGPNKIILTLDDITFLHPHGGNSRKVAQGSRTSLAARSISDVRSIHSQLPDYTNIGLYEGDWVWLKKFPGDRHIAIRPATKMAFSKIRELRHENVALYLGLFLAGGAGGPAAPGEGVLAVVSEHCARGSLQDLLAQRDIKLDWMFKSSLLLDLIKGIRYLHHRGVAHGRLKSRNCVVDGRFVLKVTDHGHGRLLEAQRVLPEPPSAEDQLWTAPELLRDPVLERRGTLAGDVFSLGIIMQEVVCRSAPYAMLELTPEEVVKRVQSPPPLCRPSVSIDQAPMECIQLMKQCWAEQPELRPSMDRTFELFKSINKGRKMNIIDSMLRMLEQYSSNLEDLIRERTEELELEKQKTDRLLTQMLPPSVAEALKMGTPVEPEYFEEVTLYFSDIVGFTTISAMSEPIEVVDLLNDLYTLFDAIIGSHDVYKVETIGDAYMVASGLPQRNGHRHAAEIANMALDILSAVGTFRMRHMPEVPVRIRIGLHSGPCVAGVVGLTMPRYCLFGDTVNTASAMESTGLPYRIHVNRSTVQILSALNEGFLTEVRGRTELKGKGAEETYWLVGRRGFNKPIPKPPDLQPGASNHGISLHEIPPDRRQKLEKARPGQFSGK

Kd [1]: 244000 nM
Substance: GCAP-2 (from UniProt P51177)

Kd (GCAP-2 [2]): 2360 nM
Kd (GCAP-2 [3]): 4200 nM
Substance: YRIHVNRSTVQILSALN [Peptide 1]

KD1 (first binding event; set by extrapolation) [4]: 1 µM
Kd [5]: 3000 nM
Substance: ROS-GC1 peptide 2 (aa 942-981), N-terminal extension of peptide 1 with a part of the catalytic domain

KD1 (first binding event) [4]: 4.2 µM
KD2 (second binding event) [4]: 244 µM
Kd [5]: 1120 nM
Substance: ROS-GC1 peptide 1 (aa 965-981), postulated GCAP-2 binding motif
